Measurements from the RNAGym collection of RNA variant scans (doi:10.7554/elife.90254).

B1: LINE1-full (parent)
chain: UACGUAGGUGGUUUUCCCCUGAUAGUGCUAAGGGGGCCUGGAAGUUUGGACUGGGCAGAGCUCAACACAGCGUGGCAAAGUGGCUGUGGCUAGACUGCCUCUCUGGAUUCCUCGUCACUCAGCAGGGCAUCUCUGAGAGAAAUGCC

Variants of: B1
Assay: self-cleavage, relative activity (ratio to wild type); higher = more cleavage; in vitro, sequencing; the parent is a self-cleaving ribozyme

| Variant | self-cleavage |
| --- | --- |
| UACGUAGGUGGUUUUCCCCUGAUAGUGCUAAGGGGGCCCGGAAGUUUGGACUGGGCAGAGCUCAACACAGCGUGGUAAAGUGGCUGUGGCUAGACUGCCUCUCUGGAUUCCUCGUCACUCAGCAGGGCAUCUCUGAGAGAAAUGCC [U39C C76U] | 0.7 |
| UACGUAGGUGGUUUUCCCCUGAUAGUGCUAAGGGGGCCCGGAAGUUUGGACUGGGCAGAGCUCAACACAGCGUGGCAAAGUGGCUGUGGCUAGACUGCCUCUCUGGAUUCCUCGUCACUCAGCAGGGCAUCUUUGAGAGAAAUGCC [U39C C133U] | 1.31 |
| UACGUAGGUGGUUUUCCCCUGAUAGUGCUAAGGGGGCCCGGAAGUUUGGACAGGGCAGAGCUCAACACAGCGUGGCAAAGUGGCUGUGGCUAGACUGCCUCUCUGGAUUCCUCGUCACUCAGCAGGGCAUCUCUGAGAGAAAUGCC [U39C U52A] | 1.4 |
| UACGUAGGUGGUUUUCCCCUGAUAGUGCUAAGGGGGCCCGGAAGUUUGGACCGGGCAGAGCUCAACACAGCGUGGCAAAGUGGCUGUGGCUAGACUGCCUCUCUGGAUUCCUCGUCACUCAGCAGGGCAUCUCUGAGAGAAAUGCC [U39C U52C] | 0.37 |
| UACGUAGGUGGUUUUCCCCUGAUAGUGCUAAGGGGGCCCGGAAGUUUGGACUGGGCAGAGCUCAACACAGCGUGGCAAAGUGGCUGUGGCUAGACUGCCUCUCUGGAUUCCUCGUCCCUCAGCAGGGCAUCUCUGAGAGAAAUGCC [U39C A117C] | 1.84 |
| UACGUAGGUGGUUUUCCCCUGAUAGUGCUAAGGGGGCCCGGAAGUUUGGACUGGGCAUAGCUCAACACAGCGUGGCAAAGUGGCUGUGGCUAGACUGCCUCUCUGGAUUCCUCGUCACUCAGCAGGGCAUCUCUGAGAGAAAUGCC [U39C G58U] | 0.03 |
| UACGUAGGUGGUUUUCCCCUGAUAGUGCUAAGGGGGCCCGGAAGUUUGGACUGGGCAGAACUCAACACAGCGUGGCAAAGUGGCUGUGGCUAGACUGCCUCUCUGGAUUCCUCGUCACUCAGCAGGGCAUCUCUGAGAGAAAUGCC [U39C G60A] | 0.02 |
| UACGUAGGUGGUUUUCCCCUGAUAGUGCUAAGGGGGCCCGGAAGUUUGGACUGGGCAGAGCUCAACACAGCGUGGCAAAGUGGCUGUGGCUAGACUGCCUCUCUGGAUUGCUCGUCACUCAGCAGGGCAUCUCUGAGAGAAAUGCC [U39C C110G] | 0.51 |
| UACGUAGGUGGUUUUCCCCUGAUAGUGCUAAGGGGGCCCGGAAGUUCGGACUGGGCAGAGCUCAACACAGCGUGGCAAAGUGGCUGUGGCUAGACUGCCUCUCUGGAUUCCUCGUCACUCAGCAGGGCAUCUCUGAGAGAAAUGCC [U39C U47C] | 1.91 |
| UACGUAGGUGGUUUUCCCCUGAUAGUGCUAAGGGGGCCCGGAAGUUUGGACUGGGCAGAGCUCAACACAGCGUGGCAAAGUGACUGUGGCUAGACUGCCUCUCUGGAUUCCUCGUCACUCAGCAGGGCAUCUCUGAGAGAAAUGCC [U39C G83A] | 0.2 |
| UACGUAGGUGGUUUUCCCCUGAUAGUGCUAAGGGGGCCCGGAAGUUUGGACUGGGCAGAGCUCAACACAGUGUGGCAAAGUGGCUGUGGCUAGACUGCCUCUCUGGAUUCCUCGUCACUCAGCAGGGCAUCUCUGAGAGAAAUGCC [U39C C71U] | 0.31 |
| UACGUAGGUGGUUUUCCCCUGAUAGUGCUAAGGGGGCCCGGAAGUUUGGACUGGGCAGAGCUCAACACAGCGUGGCAAAGUGGCUGUGGCUAGACUGCCUCUCUGGAUUCCUGGUCACUCAGCAGGGCAUCUCUGAGAGAAAUGCC [U39C C113G] | 1.71 |
| UACGUAGGUGGUUUUCCCCUGAUAGUGCUAAGGGGGCCCGGAAGUUUGGACUGGGCAGAGCUCAACACAGCGUGGCAAAGUGGCUGUGGCUAGACUGCCUCUCUGGAUUCCUAGUCACUCAGCAGGGCAUCUCUGAGAGAAAUGCC [U39C C113A] | 0.33 |
| UACGUAGGUGGUUUUCCCCUGAUAGUGCUAAGGGGGCCCGGAAGUUUGGACUGGGCAGAGCUCAACACAGCGUGGCAAAGUGGCUGUGGCUAGACUGCCUCUCUGGAUUCCUCGUCACUCAGCAGGACAUCUCUGAGAGAAAUGCC [U39C G127A] | 1.03 |
| UACGUAGGUGGUUUUCCCCUGAUAGUGCUAAGGGGGCCCGAAAGUUUGGACUGGGCAGAGCUCAACACAGCGUGGCAAAGUGGCUGUGGCUAGACUGCCUCUCUGGAUUCCUCGUCACUCAGCAGGGCAUCUCUGAGAGAAAUGCC [U39C G41A] | 1.41 |
| UACGUAGGUGGUUUUCCCCUGAUAGUGCUAAGGGGGCCCGGAAGUUUGGACUGGGCAGAGCUCAACACAGCGUGGCAAAGUGGCUGUGGCUAGACUGCCUCUCUGGAUUCCUCGUCACUCAGCGGGGCAUCUCUGAGAGAAAUGCC [U39C A124G] | 0.53 |
| UACGUAGGUGGUUUUCCCCUGAUAGUGCUAAGGGGGCCCGGAAGUUUGGACUGAGCAGAGCUCAACACAGCGUGGCAAAGUGGCUGUGGCUAGACUGCCUCUCUGGAUUCCUCGUCACUCAGCAGGGCAUCUCUGAGAGAAAUGCC [U39C G54A] | 0.58 |
| UACGUAGGUGGUUUUCCCCUGAUAGUGCUAAGGGGGCCCGGAAGUUUGGACUGUGCAGAGCUCAACACAGCGUGGCAAAGUGGCUGUGGCUAGACUGCCUCUCUGGAUUCCUCGUCACUCAGCAGGGCAUCUCUGAGAGAAAUGCC [U39C G54U] | 0.39 |
| UACGUAGGUGGUUUUCCCCUGAUAGUGCUAAGGGGGCCCGGAAGUUUGGACUGGGCAGAGCUCAACACAGCGUGGCAAAGUGGCUGUGGCUAGACUGCCUCUCUGGAUUCCUCGUCACUCAUCAGGGCAUCUCUGAGAGAAAUGCC [U39C G122U] | 1.53 |
| UACGUAGGUGGUUUUCCCCUGAUAGUGCUAAGGGGGCCCGGAAGUUUGGACUGGGCAGAGCUCAACACAGCGUGGCAAAGUGGCUGUGGCUAGACUGCCUCUCUGGAUUCCUCGUCACUCAACAGGGCAUCUCUGAGAGAAAUGCC [U39C G122A] | 1.25 |
